Several values for one entry are separate records, joined by “and”; a condition that tells them apart may be missing. Identical values can stand only once.
What was measured:
[1] = target: T1, Human 4-1BB extracellular domain recombinant protein (his-tag) (human, UniProt Q07011 24-186); test: ELISA, coated human 4-1BB-his 200 ng/well
T1 construct: extracellular domain; also called Human4-1BB, his-tag; human 4-1BB extracellular region recombinant protein; not shown: his-tag

[2] = target: T2, Monkey 4-1BB extracellular region recombinant protein (his-tag) (monkey); test: ELISA, coated monkey 4-1BB-his 200 ng/well
T2 construct: extracellular domain; also called Monkey4-1BB, his-tag

[3] = target: T1, Human 4-1BB extracellular domain …; test: ELISA, coated human 4-1BB-his 200 ng/well; antibody 0.12 µg/ml
[4] = target: T1, Human 4-1BB extracellular domain …; test: ELISA, coated human 4-1BB-his 200 ng/well; antibody 0.37 µg/ml
[5] = target: T1, Human 4-1BB extracellular domain …; test: ELISA, coated human 4-1BB-his 200 ng/well; antibody 1.11 µg/ml
[6] = target: T1, Human 4-1BB extracellular domain …; test: ELISA, coated human 4-1BB-his 200 ng/well; antibody 10.0 µg/ml
[7] = target: T1, Human 4-1BB extracellular domain …; test: ELISA, coated human 4-1BB-his 200 ng/well; antibody 3.33 µg/ml
[8] = target: T1, Human 4-1BB extracellular domain …; test: ELISA, coated human 4-1BB-his 200 ng/well; antibody 0.014 µg/ml
[9] = target: T1, Human 4-1BB extracellular domain …; test: ELISA, coated human 4-1BB-his 200 ng/well; antibody 0.041 µg/ml
[10] = target: T2, Monkey 4-1BB extracellular region …; test: ELISA, coated monkey 4-1BB-his 200 ng/well; antibody 0.12 µg/ml
[11] = target: T2, Monkey 4-1BB extracellular region …; test: ELISA, coated monkey 4-1BB-his 200 ng/well; antibody 0.37 µg/ml
[12] = target: T2, Monkey 4-1BB extracellular region …; test: ELISA, coated monkey 4-1BB-his 200 ng/well; antibody 1.11 µg/ml
[13] = target: T2, Monkey 4-1BB extracellular region …; test: ELISA, coated monkey 4-1BB-his 200 ng/well; antibody 10.0 µg/ml
[14] = target: T2, Monkey 4-1BB extracellular region …; test: ELISA, coated monkey 4-1BB-his 200 ng/well; antibody 3.33 µg/ml
[15] = target: T2, Monkey 4-1BB extracellular region …; test: ELISA, coated monkey 4-1BB-his 200 ng/well; antibody 0.014 µg/ml
[16] = target: T2, Monkey 4-1BB extracellular region …; test: ELISA, coated monkey 4-1BB-his 200 ng/well; antibody 0.041 µg/ml
[17] = target: T1, Human 4-1BB extracellular domain …; test: ELISA, coated human 4-1BB-his 200 ng/well; antibody 0 µg/ml (background well)
[18] = target: T2, Monkey 4-1BB extracellular region …; test: ELISA, coated monkey 4-1BB-his 200 ng/well; antibody 0 µg/ml (background well)
[19] = target: T3, Mouse 4-1BB extracellular region recombinant protein (his-tag) (mouse, UniProt P20334 24-187); test: ELISA, coated mouse 4-1BB his-tag 200 ng/well
T3 construct: extracellular domain; also called Mouse4-1BB, his-tag; not shown: his-tag
T3 sequence (looked up): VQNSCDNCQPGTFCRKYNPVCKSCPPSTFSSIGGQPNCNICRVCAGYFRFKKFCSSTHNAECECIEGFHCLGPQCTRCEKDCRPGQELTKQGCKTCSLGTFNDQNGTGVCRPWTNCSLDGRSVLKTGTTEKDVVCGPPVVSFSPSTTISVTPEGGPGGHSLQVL

[20] = target: T3, Mouse 4-1BB extracellular region …; test: ELISA, coated mouse 4-1BB-his 200 ng/well; antibody 0.12 µg/ml
[21] = target: T3, Mouse 4-1BB extracellular region …; test: ELISA, coated mouse 4-1BB-his 200 ng/well; antibody 0.37 µg/ml
[22] = target: T3, Mouse 4-1BB extracellular region …; test: ELISA, coated mouse 4-1BB-his 200 ng/well; antibody 1.11 µg/ml
[23] = target: T3, Mouse 4-1BB extracellular region …; test: ELISA, coated mouse 4-1BB-his 200 ng/well; antibody 10.0 µg/ml
[24] = target: T3, Mouse 4-1BB extracellular region …; test: ELISA, coated mouse 4-1BB-his 200 ng/well; antibody 3.33 µg/ml
[25] = target: T3, Mouse 4-1BB extracellular region …; test: ELISA, coated mouse 4-1BB-his 200 ng/well; antibody 0.014 µg/ml
[26] = target: T3, Mouse 4-1BB extracellular region …; test: ELISA, coated mouse 4-1BB-his 200 ng/well; antibody 0.041 µg/ml
[27] = target: T3, Mouse 4-1BB extracellular region …; test: ELISA, coated mouse 4-1BB-his 200 ng/well; antibody 0 µg/ml (background well)
[28] = target: T1, Human 4-1BB extracellular domain …; test: SPR (Biacore 8K), VHH-hFc captured on Protein A chip, human 4-1BB-his as analyte, 25°C, 1:1 fit

| EC50 [1] | EC50 [2] | absorbance at 450 nm [3] | absorbance at 450 nm [4] | absorbance at 450 nm [5] | absorbance at 450 nm [6] | absorbance at 450 nm [7] | absorbance at 450 nm [8] | absorbance at 450 nm [9] | absorbance at 450 nm [10] | absorbance at 450 nm [11] | absorbance at 450 nm [12] | absorbance at 450 nm [13] | absorbance at 450 nm [14] | absorbance at 450 nm [15] | absorbance at 450 nm [16] | absorbance at 450 nm [17] | absorbance at 450 nm [18] | Kd [28] [nM] | koff [28] [s⁻¹] | further results | Binder |
| --- | --- | --- | --- | --- | --- | --- | --- | --- | --- | --- | --- | --- | --- | --- | --- | --- | --- | --- | --- | --- | --- |
| 6.3e-05 µg/mL and 0.001 nM | 10.3 µg/mL and 128 nM | 0.334 | 0.341 | 0.376 | 0.432 | 0.433 | 0.395 | 0.355 | 0.376 | 0.343 | 0.423 | 1.07 | 0.679 | 0.385 | 0.37 | 0.087 | 0.058 | – | – | – | 137-12 VHH-hFc recombinant antibody (Fc fusion, VHH fragment inserted into vector pFclG with human IgG1 Fc tag, expressed in HEK293F; not shown: human IgG1 Fc tag of the eukaryotic expression vector pFclG) QVQLVESGGGLVHPGGSLRLSCAASGFTLDDSAIGWFRQAPGKEREGVSCRSRSGYMTKYADSVKGRFTISRYNANNTMYLQMNSLKPEDTAVYYCATTRRGYCSGYETKGVDYWGQGIQVTVSS |
| 0.001 µg/mL and 0.011 nM | 51.9 µg/mL and 649 nM | 0.383 | 0.347 | 0.414 | 0.48 | 0.454 | 0.413 | 0.372 | 0.372 | 0.276 | 0.456 | 1.91 | 0.879 | 0.333 | 0.354 | 0.112 | 0.041 | – | – | – | 137-36 VHH-hFc recombinant antibody (Fc fusion, VHH fragment inserted into vector pFclG with human IgG1 Fc tag, expressed in HEK293F; not shown: human IgG1 Fc tag of the eukaryotic expression vector pFclG) QVQLVESGGGLVQTGGSLTLSCVASGRRFEAYTIGWLRQAPGDLREGVGCIFGGTTFTGYDDSVKGRFTISRDTAKNTVYLRMNNLTSEDTATYYCAAEGRPGQIKGQHGCLTPSWYNYKGQGTQVTVSS |
| 6.04 µg/mL and 75.6 nM | 0.001 µg/mL and 0.012 nM | 0.461 | 0.458 | 0.62 | 1.45 | 1 | 0.521 | 0.477 | 0.306 | 0.251 | 0.286 | 0.405 | 0.342 | 0.292 | 0.387 | 0.128 | 0.041 | – | – | – | 137-39 VHH-hFc recombinant antibody (Fc fusion, VHH fragment inserted into vector pFclG with human IgG1 Fc tag, expressed in HEK293F; Preparation had non-specific bands, purity about 30%; not shown: human IgG1 Fc tag of the eukaryotic expression vector pFclG) QVQLVESGGGLVHVGESLTLSCVISGGSSNLYGIGWYRQAPGQERKLVAVLHNEHTTKYLDSVKGRFFVSGDNAKNTLYLHMNNVKVEDTAVYYCNSASGTLAGTGYFASVGPWGQGTLVTVSS |
| 0.138 µg/mL and 1.73 nM | 0.113 µg/mL and 1.41 nM | 1.5 | 3.97 | – | – | – | 0.612 | 0.754 | 1.85 | 3.97 | – | – | – | 0.621 | 0.971 | 0.093 | 0.077 | 3.91 | 0.00916 | binding result [19]: no binding (tested: 0.014-10 µg/mL); absorbance at 450 nm [20]: 0.184; absorbance at 450 nm [21]: 0.269; absorbance at 450 nm [22]: 0.207; absorbance at 450 nm [23]: 0.31; absorbance at 450 nm [24]: 0.231; absorbance at 450 nm [25]: 0.199; absorbance at 450 nm [26]: 0.202; absorbance at 450 nm [27]: 0.24; kon [28]: 2.34e+06 M⁻¹ s⁻¹ | 137-1 VHH-hFc recombinant antibody (Fc fusion, also called CD137-1; not shown: human IgG1 Fc tag of the eukaryotic expression vector pFclG) QVQLVESGGGLVQPGGSLRLSCVASGFVFSTVTMGWGRQVPGKEFEWVSGVSSEGITDYADSVKGRFTISRDNAKNTVYLEMNSLKSEDTAEYYCLIGGRWSFGTWGQGTQVTVSS |
| 0.09 µg/mL and 1.12 nM | 0.17 µg/mL and 2.12 nM | 2.37 | – | – | – | – | 0.589 | 0.963 | 1.54 | 3.19 | – | – | – | 0.581 | 0.794 | 0.081 | 0.055 | 38 | 0.0298 | binding result [19]: no binding (tested: 0.014-10 µg/mL); absorbance at 450 nm [20]: 0.166; absorbance at 450 nm [21]: 0.201; absorbance at 450 nm [22]: 0.191; absorbance at 450 nm [23]: 0.284; absorbance at 450 nm [24]: 0.218; absorbance at 450 nm [25]: 0.187; absorbance at 450 nm [26]: 0.18; absorbance at 450 nm [27]: 0.209; kon [28]: 783000 M⁻¹ s⁻¹ | 137-7 VHH-hFc recombinant antibody (Fc fusion, VHH fragment inserted into vector pFclG with human IgG1 Fc tag, expressed in HEK293F; also called CD137-7; not shown: human IgG1 Fc tag of the eukaryotic expression vector pFclG) QVQLVESGGGLVQPGGSLRLSCAASGFTLDSYAIAWFRQAPGKEREGVSCITSSGGSTNYADSVKGRFTISRDGAKNTVYLQLNSLKPEDTAIYYCAAFHRATCVILGEYDYWGQGTQVTVSS |
| 0.536 µg/mL and 6.7 nM | 0.234 µg/mL and 2.93 nM | 0.704 | 1.58 | 3.52 | – | – | 0.41 | 0.419 | 1.17 | 2.79 | – | – | – | 0.447 | 0.581 | 0.096 | 0.043 | 33.3 | 0.00274 | kon [28]: 82200 M⁻¹ s⁻¹ | 137-16 VHH-hFc recombinant antibody (Fc fusion, VHH fragment inserted into vector pFclG with human IgG1 Fc tag, expressed in HEK293F; Preparation had non-specific bands, purity >70%; also called CD137-16; not shown: human IgG1 Fc tag of the eukaryotic expression vector pFclG) EVQLVESGGGLVQAGASLTLSCVISGRTFSSYAMGWYRQAPGKERAFVGTITWNNDIIYSDSVKGRFTISTDDGKNTMYLQMNNLKPEDTAVYYCAAYSVPYGDFCTLNYDLMDYWGKGTLVTVSS |
